Reference: patent publication US20240400621A1, “PEPTIDES FOR METABOLIC SYNDROME” (ALPARIS, S.A. de C.V., priority 2021, published 2024)

Legend:
[1] = molecular target: T1, hTLR2 (Homo sapiens, UniProt O60603); test: hTLR2 stimulation in HEK-Blue hTLR2 cells (NF-κβ/SEAP reporter, QUANTI-Blue); type: cell-based
T1 construct: expressed in transfected cells; host or cells: HEK-Blue hTLR2 cells
Protocol: The analysis of the biological activity of the protein of SEQ ID NO. 1 was performed via an in vitro Toll-like receptors (TLRs) recognition assay. The HEK-Blue hTLR2 cell line expressing the hTLR2 receptor was used, whose stimulation activates the NF-Kβ factor, which in turn induces the production of the reporter protein, secreted embryonic alkaline phosphatase (SEAP). The SEAP levels are quantified by a colorimetric method with the reagent QUANTI-Blue and correspond to hTLR2 stimulation levels. The HEK-Blue hTLR2 cell line was thawed and propagated to make a master cell bank. From this bank, a vial was thawed to check the correct growth of the cell line and the absence of mycoplasma contamination. The cells of the thawed vial were propagated to make a working cell bank and continue the subcultures to mount the activity assay of SEQ ID NO. 1. This consisted of a series of tests in which the cellular response was evaluated with different molecules to determine the most suitable conditions for the assay.
The determined EC50 for SEQ ID NO. 1 was 1147±211 ng/ml (35.1±6.4 nM).
The in vitro biological activity of SEQ ID NO:2, SEQ ID NO:3, SEQ ID NO:4, SEQ ID NO: 8, SEQ ID NO:9, SEQ ID NO: 10, SEQ ID NO:11, SEQ ID NO: 12, SEQ ID NO: 13, SEQ ID NO: 14, SEQ ID NO: 15, and SEQ ID NO:16 was tested via the stimulation of hTLR2 in the cultures of HEK-Blue hTLR2 cells in 96-well plates for 24 h. After collecting the supernatant, the plate was incubated with QUANTI-Blue at 37° C. for 1 h, and absorbance was measured at 620 nm.
To determine the EC50, the absorbance was plotted against the logarithm of protein concentration, and the data was adjusted to a dose-response sigmoidal ligand binding model with 4 parameters. The cell culture medium was used as a negative control, and PAM (synthetic triacylated lipopeptide (Pam3CSK4)) was used as a positive control.

[2] = Body weight of mice on high-fat diet (DAG) with intragastric peptide for 12 weeks; type: in vivo, mice (C57BL/6JN)
Protocol: (§1) For all the in vivo testing, male mice of the C57BL/6JN strain between 8 to 10 weeks of age were used, housed in groups of 3 to 5 mice per cage with food and water ad libitum in ventilated racks, and whose microbiota were unified for 4 weeks.
(§2) The mice received either 200 μL of a phosphate buffer solution (PBS) at pH 7.5 (as a vehicle), or 200 μL of the PBS solution, with each of the intragastric treatments daily for 12 weeks. They were fed either a Normal Diet (DN, Harlan, Teklad 2018SX) with 18% of the calories coming from fat, or a High-Fat Diet (DAG, Research Diets, D12491), with 60% of the calories coming from fat.
(§3) All the mice were randomly divided into five experimental groups in order to study the effect of SEQ ID NO: 3 and SEQ ID NO: 2 correctly: • Group 1—Mice with DN that received 200 μl of PBS intragastrically. • Group 2—Mice with DAG that received 200 μl of PBS intragastrically. • Group 3—Mice with DAG that received 200 μl of PBS with SEQ ID NO: 3 intragastrically at a dose of: 2.5 μg/mouse. • Group 4—Mice with DAG that received 200 μl of PBS with SEQ ID NO: 2 intragastrically at a dose of 0.6 μg/mouse (high dose). • Group 5—Mice with DAG that received 200 μl of PBS with SEQ ID NO: 2 intragastrically at a dose of 0.2 μg/mouse (low dose).
The animal weights and feed intakes were recorded weekly.
To determine the metabolic status of the animals before starting the experiment, weight, basal glucose levels, glucose tolerance, and insulin resistance were recorded.

[3] = system: mice fed a high-fat diet; test: Insulin resistance test (PRI) in mice fed a high-fat diet; type: in vivo, mice (C57BL/6JN); settings: 12 weeks; intragastric daily; SEQ ID NO: 3 2.5 μg/mouse, SEQ ID NO: 2 0.6 or 0.2 μg/mouse
Protocol: as §1
as §2, with “fat. […]” for “fat.”
The mice were subjected to fasting for 6 hours and the baseline glucose values were determined, as described above. Subsequently, the mice received an intraperitoneal injection of 1 mU of insulin per gram of body weight, and blood glucose values were recorded at 15, 30, 60, and 120 minutes after administration. The area under the curve (AUC) of the insulin resistance test was calculated considering the glucose decrease between time T0 and T15 using the absolute glucose values, as shown in FIGS. 20A and 20B.

[4] = system: adipose tissue; test: Cellular infiltrate / inflammatory process in adipose tissue of mice fed a high-fat diet; type: in vivo, mice (C57BL/6JN)
Protocol: as §1, §2, §3
(§4) To determine the effect of the peptides SEQ ID NO: 2 and SEQ ID NO: 3 in attenuating the inflammatory process in adipose tissue, the cellular infiltrate of the adipose tissue of the mice was quantified after they had been fed DAG.

[5] = system: TNFα; test: Circulating TNFα levels in mice fed a high-fat diet; type: in vivo, mice (C57BL/6JN); settings: 12 weeks; versus DAG; including SEQ ID NO: 2 at low doses
Protocol: as §1
as §2, with “fat. […]” for “fat.”
as §4

[6] = system: IL-6; test: IL-6 levels in mice fed a high-fat diet; type: in vivo, mice (C57BL/6JN); settings: 12 weeks; animals fed DAG
Protocol: as §1, §2, §3

[7] = system: leptin; test: Leptin levels in mice fed a high-fat diet; type: in vivo, mice (C57BL/6JN); settings: 12 weeks; compared to mice fed only DAG
Protocol: as §1, §2
as §3, with “(low dose). […]” for “(low dose).”

[8] = system: adiponectin; test: Adiponectin levels in mice fed a high-fat diet; type: in vivo, mice (C57BL/6JN); settings: 12 weeks; fall induced by DAG
Protocol: as §1, §2
as §3, with “(low dose). […]” for “(low dose).”

T1 sequence (O60603 21-784): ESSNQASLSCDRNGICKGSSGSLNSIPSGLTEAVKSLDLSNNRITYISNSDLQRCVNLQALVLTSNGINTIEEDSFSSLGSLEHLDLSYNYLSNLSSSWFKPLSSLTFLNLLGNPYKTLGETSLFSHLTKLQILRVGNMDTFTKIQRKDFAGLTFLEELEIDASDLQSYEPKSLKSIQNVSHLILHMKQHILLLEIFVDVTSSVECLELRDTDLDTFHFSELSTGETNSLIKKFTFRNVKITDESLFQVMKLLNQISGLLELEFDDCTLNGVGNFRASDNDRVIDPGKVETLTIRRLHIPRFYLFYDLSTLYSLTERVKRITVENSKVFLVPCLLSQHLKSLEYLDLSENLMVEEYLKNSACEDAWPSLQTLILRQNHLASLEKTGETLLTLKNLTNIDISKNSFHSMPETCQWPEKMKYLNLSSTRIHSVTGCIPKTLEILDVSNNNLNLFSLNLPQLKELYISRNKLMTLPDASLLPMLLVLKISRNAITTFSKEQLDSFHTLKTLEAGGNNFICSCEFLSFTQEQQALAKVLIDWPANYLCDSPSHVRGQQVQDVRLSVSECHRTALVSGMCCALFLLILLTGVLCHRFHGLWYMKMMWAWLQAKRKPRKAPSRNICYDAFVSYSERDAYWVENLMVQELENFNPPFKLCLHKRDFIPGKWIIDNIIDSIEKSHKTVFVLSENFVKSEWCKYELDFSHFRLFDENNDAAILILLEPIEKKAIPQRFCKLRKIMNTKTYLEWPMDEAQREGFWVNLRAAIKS

B1: peptide SEQ ID NO: 3 (carboxyl terminal domain of SEQ ID NO: 1) (peptide)
chain: QLPIETPANNPEESDEADQAPWTPMPLEIAFQGDRESVLKAMNAITGMQDYLFTVNSIRIRNERMMPPPIANPAAAKPAAAQPATGAASLTPADEAAAPAAPAIQQVIKPYMGKEQVFVQVSLNLVHFNQPKAQEPSED
[1]; HEK-Blue hTLR2 cells, 24 h
  concentration from which hTLR2 is (significantly) stimulated: 8 nM
[1]; from 229 nM, PAM (Pam3CSK4) positive control
  relative response compared to PAM: 107%
[2]; 0 weeks (initial state), DAG + SEQ ID NO: 3 group
  Average weight: 21.4 grams
[2]; 12 weeks, DAG + SEQ ID NO: 3, 2.5 μg/mouse intragastric daily
  Average weight: 37.9 grams
[3]
  insulin sensitivity (AUC of insulin resistance test) versus DAG group: improve insulin sensitivity
[4]; 12 weeks, versus DAG group
  cellular infiltrate of adipose tissue: prevented the increase in cellular infiltrate induced by DAG
[4]; SEQ ID NO:2 in high or low doses
  inflammatory process in adipose tissue: attenuate the inflammatory process in adipose tissue
[5]
  circulating levels of TNFα: prevented the increase in the circulating levels
[6]
  IL-6 levels: dramatic decrease in IL-6 levels
[7]
  leptin secretion: decrease in leptin secretion
[8]
  adiponectin in circulation: tendency to prevent a fall of adiponectin
